Reference: publication PMC5984625, “Dynamic structural states of ClpB involved in its disaggregation function” (Nature Communications, 2018)

Assays:
[1] = molecular target: the molecule itself; assay: AUC; sedimentation velocity, 20 °C, 42,000 rpm, 50 mM MOPS pH 7.5, 50 mM KCl, 5 mM MgCl2, 0.5 and 2.0 mg/mL protein, with 2 mM ATPγS (preincubated 55 °C 1 min)
[2] = molecular target: the molecule itself; assay: AUC; sedimentation velocity, 20 °C, 42,000 rpm, 50 mM MOPS pH 7.5, 50 mM KCl, 5 mM MgCl2, 0.5 and 2.0 mg/mL protein, with 20 mM ADP (preincubated 55 °C 1 min)
[3] = molecular target: the molecule itself; assay: AUC; sedimentation velocity, 20 °C, 42,000 rpm, 50 mM MOPS pH 7.5, 50 mM KCl, 5 mM MgCl2, 0.5 and 2.0 mg/mL protein, with 20 mM ATP (preincubated 55 °C 1 min)
[4] = molecular target: the molecule itself; assay: native MS; incubated at 55 °C with 2 mM ATP or ATPγS for 1 min, exchanged into 150 mM ammonium acetate pH 7.5 with 100 µM ATP or ATPγS at 4 °C; nanoflow electrospray

B1: Full-length T. thermophilus ClpB (TClpB) (natural protein)
chain: not shown
notes: ClpB of Thermus thermophilus, full length, expressed from plasmid pMCB1; The protomer; it assembles into oligomers of varying size depending on the nucleotide; also called full-length TClpB; source: E. coli BL21(DE3) or KRX carrying pMCB1, purified
- stoichiometry N [1]: 6
- stoichiometry N [2]: < 6
- stoichiometry N [3]: 3
- stoichiometry N [4]: 2
